Experimental findings from patent publication US20150266967A1 (Boehringer Ingelheim, published 2015) are described below.

Experiment [1] has as its target T1, recombinant Fcγ-receptor 3a protein, high affinity V158 allotype (UniProt P08637 17-208).
T1 construct: also called Fcγ-receptor 3a V158; FC gamma receptor 3a
Description: surface plasmon resonance, KD from ka and kd. On the technique in general: Surface plasmon resonance follows binding to a sensor surface in real time, without labels.

In experiment [2] the target is T1, recombinant Fcγ-receptor 3a protein, …. Nature of the experiment: surface plasmon resonance, KD compared with reference antibody.
In experiment [3] the target is T2, recombinant Fcγ-receptor 3a protein, low affinity F158 allotype (UniProt P08637 17-208).
T2 construct: F158 allotype; also called Fcγ-receptor 3a F158; FC gamma receptor 3a
T2 sequence (P08637 17-208 limits assumed): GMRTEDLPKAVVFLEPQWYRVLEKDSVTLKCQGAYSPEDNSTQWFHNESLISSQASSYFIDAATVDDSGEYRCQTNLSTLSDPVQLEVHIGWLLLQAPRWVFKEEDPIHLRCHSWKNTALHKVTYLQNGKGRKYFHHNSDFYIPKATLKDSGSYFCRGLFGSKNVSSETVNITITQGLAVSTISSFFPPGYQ
Description: surface plasmon resonance, KD from ka and kd; A2, F158 allotype.

Experiment [4] concerns the target T2, recombinant Fcγ-receptor 3a protein, …. Description: surface plasmon resonance, KD from ka and kd; B2, F158 allotype.

T1 sequence (P08637 17-208 F176V): as the sequence (P08637 17-208 limits assumed) above, with F160V counted along it

B1: CD37 antibody A2 (antibody, human IgG1, kappa)
heavy: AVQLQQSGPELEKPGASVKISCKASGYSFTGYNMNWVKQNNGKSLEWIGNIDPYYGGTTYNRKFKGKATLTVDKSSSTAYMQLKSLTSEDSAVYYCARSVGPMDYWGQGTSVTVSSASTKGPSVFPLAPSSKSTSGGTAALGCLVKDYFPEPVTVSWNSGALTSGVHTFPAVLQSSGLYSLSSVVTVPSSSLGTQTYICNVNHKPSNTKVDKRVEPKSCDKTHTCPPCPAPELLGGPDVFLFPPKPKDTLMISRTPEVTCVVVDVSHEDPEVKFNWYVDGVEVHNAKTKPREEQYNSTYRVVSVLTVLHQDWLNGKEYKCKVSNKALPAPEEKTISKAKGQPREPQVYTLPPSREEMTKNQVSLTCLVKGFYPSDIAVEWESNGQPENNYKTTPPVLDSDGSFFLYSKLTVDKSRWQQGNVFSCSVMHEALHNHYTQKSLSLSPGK
light: DIQMTQSPASLSASVGETVTITCRTSENVYSYLAWYQQKQGKSPQLLVSFAKTLAEGVPSRFSGSGSGTQFSLKISSLQPEDSGSYFCQHHSDNPWTFGGGTELEIKRTVAAPSVFIFPPSDEQLKSGTASVVCLLNNFYPREAKVQWKVDNALQSGNSQESVTEQDSKDSTYSLSSTLTLSKADYEKHKVYACEVTHQGLSSPVTKSFNRGEC
notes: Fc-engineered CD37 antibody; copies: 2 + 2
On to B1, for which the dissociation constant Kd worked out at 8.8 nM in experiment [1] and 17.5 nM in experiment [3]. In experiment [2], the “fold increased binding against the non Fc-engineered IgG1 reference antibody” value was around 40 fold.

B2: CD37 antibody B2 (antibody, human IgG1, kappa)
heavy: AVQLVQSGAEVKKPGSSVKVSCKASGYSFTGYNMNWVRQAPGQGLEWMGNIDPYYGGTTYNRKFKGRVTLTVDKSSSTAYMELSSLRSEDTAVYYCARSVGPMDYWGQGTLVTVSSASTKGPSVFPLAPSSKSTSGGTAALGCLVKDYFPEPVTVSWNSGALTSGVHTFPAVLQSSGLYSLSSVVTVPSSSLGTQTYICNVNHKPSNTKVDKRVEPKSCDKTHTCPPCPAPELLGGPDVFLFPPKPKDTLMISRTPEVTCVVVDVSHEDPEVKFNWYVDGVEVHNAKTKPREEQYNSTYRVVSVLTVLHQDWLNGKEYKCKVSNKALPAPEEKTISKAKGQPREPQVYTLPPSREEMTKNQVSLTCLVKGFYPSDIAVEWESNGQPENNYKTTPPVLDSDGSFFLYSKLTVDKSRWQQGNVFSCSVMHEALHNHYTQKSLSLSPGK
light: DIQMTQSPSSLSASVGDRVTITCRTSENVYSYLAWYQQKPGKAPKLLVSFAKTLAEGVPSRFSGSGSGTDFTLTISSLQPEDFATYFCQHHSDNPWTFGQGTKVEIKRTVAAPSVFIFPPSDEQLKSGTASVVCLLNNFYPREAKVQWKVDNALQSGNSQESVTEQDSKDSTYSLSSTLTLSKADYEKHKVYACEVTHQGLSSPVTKSFNRGEC
notes: as for B1
Consider B2, for which the Kd in experiment [1] was 9.3 nM; in experiment [4] it was 21.1 nM. Further, in experiment [2], the “fold increased binding against the non Fc-engineered IgG1 reference antibody” value was around 40 fold.

What is called Kd is a measure of binding affinity in units of concentration.
